From publication PMC5570905, “Phytochrome-interacting factors directly suppress MIR156 expression to enhance shade-avoidance syndrome in Arabidopsis” come the findings set out here.

In this data set the target is T1, GST-PIF5 bHLH domain (Arabidopsis thaliana, UniProt Q84LH8 259-310).
T1 sequence: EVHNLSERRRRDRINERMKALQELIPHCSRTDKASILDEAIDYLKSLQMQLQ
The data set is described as follows: EMSA; Beyotime EMSA kit binding buffer (composition not stated), 20 min, room temperature, 5% native PAGE; 50x and 100x unlabeled competitor. The conditions noted are these: protein: recombinant, tags: N-terminal GST (pGEX-4T-1), chain copies: 2, label: biotin.

Positions count from the first letter of the chain named.

B1: MIR156F probe (E05/E06) (dsDNA)
DNA 1: AACAAACCCCATTACGACACGTGACAGGCTGGGCATTCTCCACATGCTTTCTTGCCGAAA
DNA 2: TTTCGGCAAGAAAGCATGTGGAGAATGCCCAGCCTGTCACGTGTCGTAATGGGGTTTGTT
As to B1, the binding result (blunt) is reported as “binds”.

B2: MIR156F mutant probe (E07/E08) (dsDNA)
DNA 1: B1 DNA 1 with C18T, A19G, C20A, G21C, T22C, G23T
DNA 2: B1 DNA 2 with C38T, A39G, C40A, G41C, T42C, G43T
For the molecule B2, the binding result (60 nt strands) is reported as “no binding”.

B3: MIR156E mutant probe (E03/E04) (dsDNA)
DNA 1: CATATTCGTTCCCACTGACCTTCTCCTCAGGGGCTGACTGACCTATTCCCACGCCGAAAG
DNA 2: CTTTCGGCGTGGGAATAGGTCAGTCAGCCCCTGAGGAGAAGGTCAGTGGGAACGAATATG
On to B3, for which the binding result (blunt) is given as “no binding”.

B4: MIR156E probe (E01/E02) (dsDNA)
DNA 1: CATATTCGTTCCCACCACGTGTCTCCTCAGGGGCTGACCACGTGATTCCCACGCCGAAAG
DNA 2: CTTTCGGCGTGGGAATCACGTGGTCAGCCCCTGAGGAGACACGTGGTGGGAACGAATATG
In the case of B4, where the note is “blunt”, the binding result is on record as “binds”.
